In doi:10.1101/2022.03.21.485124:
Blank lines part the entries; values can stand above or below the substance they belong to.

How the values were obtained:
Assay in all cases: SEC
[1] = target: human CD81 large extracellular loop domain, mutant D139N (human)
[2] = target: human CD81 large extracellular loop domain, mutant E188Q (human)
[3] = target: wild-type human CD81 large extracellular loop domain (wt-hCD81LEL) (human)

- stoichiometry N [1]: 2
Substance: human CD81 large extracellular loop domain, mutant D139N (domain or fragment)

- stoichiometry N [2]: 2
Substance: human CD81 large extracellular loop domain, mutant E188Q (domain or fragment)

- stoichiometry N [3]: 2
Substance: wild-type human CD81 large extracellular loop domain (wt-hCD81LEL) (domain or fragment)
